Experimental data published in the supplement of paper PMC10567573.

B1: STK38L (parent)
chain: FLPGGDMMTLLMKKDTLTEEETQF
B2: NETO1 (parent)
chain: KTSLLDQLTNTSGTVIGVTSCIVI

Variants of: B1
Test: protein stability index of a GFP-peptide fusion (GPS, HEK-293T) (PSI 1-6); higher = more stable
Conditions: c terminus: a fixed tail appended
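Note: lentivirally expressed fusions sorted by FACS into six bins by GFP to DsRed ratio, PSI derived from sequencing read proportions per bin multiplied by bin number.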

Row | Variant | protein stability index
1 | F1C | 4.39
2 | F1H | 4.48
3 | F1G | 4.51
4 | F1A | 4.91
5 | F1I | 3.88
6 | F1D | 5.25
7 | F1E | 4.92

Variants of: B2
Test: as above
Conditions: c terminus: a fixed tail appended

Row | Variant | protein stability index
8 | C21D | 2.31
9 | C21Q | 3.44
10 | C21W | 2.62
11 | C21R | 3.31
12 | C21Y | 2.72
13 | C21S | 3.06
14 | C21V | 3.29
15 | C21T | 2.88
16 | C21G | 3.12
17 | C21H | 2.2
18 | C21I | 2.7
19 | C21P | 2.13
20 | C21L | 3.29
21 | C21K | 3.29
22 | C21M | 2.41
23 | C21F | 3.65
24 | C21N | 3.1
25 | C21E | 2.83
26 | C21A | 2.7
27 | I24T | 1.6
28 | I24M | 2.45
29 | I24D | 2.54
30 | I24P | 2.33
31 | I24Y | 2.55
32 | I24C | 1.64
33 | I24K | 2.04

Row | Variant | protein stability index
34 | I24G | 1.79
35 | I24R | 1.74
36 | I24V | 2.2
37 | I24E | 2.21
38 | I24S | 1.94
39 | I24Q | 1.62
40 | I24A | 1.71
41 | I24W | 2.92
42 | I24L | 3.2
43 | I24H | 1.99
44 | I24N | 2.08
45 | I24F | 1.79
46 | T9S | 2.72
47 | T9P | 2.6
48 | T9G | 2.29
49 | T9Y | 3.55
50 | T9A | 2.1
51 | T9L | 3.09
52 | T9W | 3.88
53 | T9K | 3.98
54 | T9R | 2.21
55 | T9N | 3.29
56 | T9D | 2.58
57 | T9I | 2.33
58 | T9F | 2.37
59 | T9M | 2.4

Row | Variant | protein stability index
60 | T9C | 3.21
61 | T9H | 2.95
62 | T9V | 2.63
63 | T11G | 2.93
64 | T11H | 3.21
65 | T11E | 5.03
66 | T11S | 2.15
67 | T11F | 2.35
68 | T11D | 3.42
69 | T11M | 3.29
70 | T11Y | 2.33
71 | T11L | 1.92
72 | T11A | 3.75
73 | T11R | 1.74
74 | T11Q | 2.81
75 | T11I | 2.52
76 | T11K | 3.11
77 | T11N | 2.29
78 | T11V | 2.65
79 | T11W | 3.6
80 | T11C | 3.13
81 | T11P | 3.64
82 | V18M | 3.92
83 | V18D | 2.55
84 | V18G | 3.24
85 | V18C | 1.92

Row | Variant | protein stability index
86 | V18H | 2.95
87 | V18Q | 2.66
88 | V18S | 3.67
89 | V18A | 3.38
90 | V18L | 3.12
91 | V18T | 2.93
92 | V18Y | 3.56
93 | V18K | 3.8
94 | V18E | 2.2
95 | V18I | 2.84
96 | V18W | 4.09
97 | V18N | 4.17
98 | V18R | 2.23
99 | V18P | 2.84
100 | V18F | 2.48
101 | S20W | 3.86
102 | S20C | 2.91
103 | S20M | 2.89
104 | S20L | 2.79
105 | S20T | 2.37
106 | S20D | 2.83
107 | S20G | 2.14
108 | S20A | 3.66
109 | S20V | 2.44
110 | S20P | 2.98
111 | S20Q | 2.53

Row | Variant | protein stability index
112 | S20H | 2.97
113 | S20F | 2.87
114 | S20Y | 2.8
115 | S20R | 4.13
116 | S20E | 4.15
117 | S20K | 3.19
118 | S20I | 3.08
119 | S20N | 3.04
120 | N10H | 2.78
121 | N10Y | 2.62
122 | N10T | 2.41
123 | N10F | 2.3
124 | N10V | 3.24
125 | N10D | 2.47
126 | N10Q | 2.33
127 | N10E | 3.35
128 | N10A | 2.13
129 | N10W | 3.97
130 | N10C | 2.71
131 | N10I | 3.08
132 | N10S | 2.76
133 | N10M | 3.51
134 | N10R | 2.53
135 | N10L | 3.8
136 | N10K | 3.15
137 | N10P | 2.96

Row | Variant | protein stability index
138 | N10G | 3.19
139 | G17V | 2.91
140 | G17R | 2.88
141 | G17K | 2.64
142 | G17E | 2.69
143 | G17T | 3.32
144 | G17I | 3.43
145 | G17W | 2.9
146 | G17C | 3.42
147 | G17M | 2.55
148 | G17H | 3.23
149 | G17A | 2.71
150 | G17P | 3.45
151 | G17L | 3.83
152 | G17N | 3.28
153 | G17D | 3.37
154 | G17Y | 1.98
155 | G17F | 2.72
156 | G17Q | 2.36
157 | G17S | 3.25
158 | T14A | 2.03
159 | T14V | 3.29
160 | T14W | 2.37
161 | T14P | 2.69
162 | T14R | 3.41
163 | T14M | 2.62

Row | Variant | protein stability index
164 | T14E | 3.18
165 | T14N | 2.98
166 | T14I | 2.98
167 | T14L | 2.47
168 | T14C | 2.61
169 | T14D | 2.58
170 | T14F | 2.82
171 | T14H | 2.62
172 | T14Y | 2.64
173 | T14Q | 3.41
174 | T14K | 3.88
175 | T14G | 2.11
176 | T14S | 1.94
177 | V15L | 4.43
178 | V15K | 3.5
179 | V15M | 2.87
180 | V15E | 2.04
181 | V15W | 2.59
182 | V15D | 3.39
183 | V15C | 2.06
184 | V15F | 2.44
185 | V15Q | 2.33
186 | V15H | 1.99
187 | V15P | 3.31
188 | V15A | 2.65
189 | V15G | 2.98

Row | Variant | protein stability index
190 | V15I | 3.08
191 | V15N | 2.74
192 | V15S | 2.96
193 | V15R | 2.45
194 | V15Y | 3.74
195 | V15T | 3.07
196 | L8H | 3.66
197 | L8S | 3.3
198 | L8I | 3.38
199 | L8M | 2.83
200 | L8Y | 3.41
201 | L8Q | 3.09
202 | L8V | 3.52
203 | L8A | 2.76
204 | L8P | 2.5
205 | L8R | 3.04
206 | L8N | 2.56
207 | L8G | 2
208 | L8K | 2.99
209 | L8W | 3.83
210 | L8C | 3.29
211 | L8T | 3.48
212 | L8E | 2.35
213 | L8D | 3.02
214 | L8F | 2.71
215 | G13I | 2.57

Row | Variant | protein stability index
216 | G13L | 2.42
217 | G13A | 2.12
218 | G13H | 2.65
219 | G13W | 3.1
220 | G13K | 2.9
221 | G13F | 3.7
222 | G13M | 3.17
223 | G13P | 2.94
224 | G13E | 3.52
225 | G13S | 3.19
226 | G13V | 2.66
227 | G13R | 3.34
228 | G13D | 2.26
229 | G13C | 2.5
230 | G13T | 2.23
231 | G13Y | 3.2
232 | G13N | 3.9
233 | Q7Y | 2.47
234 | Q7N | 3.77
235 | Q7R | 1.64
236 | Q7S | 2.36
237 | Q7V | 3.45
238 | Q7M | 2.37
239 | Q7P | 2.88
240 | Q7T | 2.05
241 | Q7K | 2.87

Row | Variant | protein stability index
242 | Q7W | 2.18
243 | Q7L | 3.27
244 | I22K | 2.35
245 | I22M | 3.35
246 | I22Q | 2.15
247 | I22T | 3.07
248 | I22R | 1.87
249 | I22G | 2.36
250 | I22N | 1.72
251 | I22F | 2.56
252 | I22P | 2.37
253 | I22D | 2.39
254 | I22A | 2.12
255 | I22V | 3.37
256 | I22H | 2.1
257 | I22E | 2.32
258 | I22W | 3.04
259 | I22L | 2.08
260 | I22Y | 2.81
261 | I22S | 1.45
262 | I22C | 3.54
263 | V23H | 1.97
264 | V23F | 2.28
265 | V23C | 3.17
266 | V23D | 1.95
267 | V23M | 2.56

Row | Variant | protein stability index
268 | V23W | 2.74
269 | V23L | 3.18
270 | V23P | 1.65
271 | V23Y | 2.66
272 | V23R | 2.65
273 | V23T | 2.85
274 | V23Q | 2.87
275 | V23N | 2.01
276 | V23E | 2.98
277 | V23G | 1.79
278 | V23I | 2.81
279 | V23A | 2.03
280 | V23K | 3.04
281 | T19D | 1.59
282 | T19R | 3.08
283 | T19A | 3.16
284 | T19K | 2.97
285 | T19Q | 3.55
286 | T19E | 2.68
287 | T19F | 2.52
288 | T19G | 3
289 | T19M | 2.5
290 | T19V | 2.91
291 | T19N | 3.28
292 | T19S | 3.29
293 | T19P | 1.91

Row | Variant | protein stability index
294 | T19I | 2.2
295 | T19W | 2.06
296 | T19Y | 2.79
297 | T19C | 2.73
298 | T19L | 3.78
299 | T19H | 4.49
300 | S12Q | 2.56
301 | S12W | 1.75
302 | S12A | 2.96
303 | S12F | 2.37
304 | S12P | 2.51
305 | S12D | 3.07
306 | S12T | 2.78
307 | S12Y | 3.62
308 | S12L | 2.43
309 | S12V | 3.35
310 | S12N | 3.41
311 | S12G | 3.53
312 | S12I | 2.89
313 | S12H | 2.69
314 | S12E | 2.87
315 | S12K | 2.89
316 | S12M | 1.87
317 | I16R | 2.79
318 | I16E | 2.85
319 | I16M | 2.62

Row | Variant | protein stability index
320 | I16C | 3.8
321 | I16T | 3.23
322 | I16L | 2.98
323 | I16F | 3.68
324 | I16A | 2.44
325 | I16D | 2.52
326 | I16S | 3.79
327 | I16H | 2.67
328 | I16K | 3.1
329 | I16N | 2.27
330 | I16P | 2.76
331 | I16V | 2.48
332 | I16Y | 2.12
333 | I16W | 2.03
334 | I16Q | 2.94
